In the RNAGym collection of RNA variant scans (doi:10.1073/pnas.2313332121):
This sample holds only a part of the variants without activity.

B1: TPR 5TU (parent)
chain: GGAUCUUCUCGAUCUAACAAAAAAGACAAAUCUGCCACAAAGCUUGAGAGCAUCUUCGGAUGCAGAGGCGGCAGCCUUCGGUGGCGCGAUAGCGCCAACGUUCUCAACUAUGACACGCAAAACGCGUGCUCCGUUGAAUGGAGUUUAUCAUG

Variants of: B1
Assay: polymerase ribozyme fitness, log enrichment relative to wild type (log ratio); higher = more active; in vitro selection for triplet polymerase activity
Method in brief: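 Each subunit of a heterodimeric triplet polymerase ribozyme was mutagenized into a library by PCR, transcribed, and subjected to one round of in vitro selection, run in triplicate. Libraries were annealed with a biotinylated primer, the partner subunit and triplets, incubated frozen at −7 °C, and extended constructs were gel-excised, captured on streptavidin beads and recovered by RT-PCR. Input and output libraries were sequenced on Illumina, keeping genotypes with ≥10 input reads and ≥1 read per output. Fitness is log base 2 of genotype enrichment divided by wild-type enrichment, from inverse-variance-weighted replicate averages.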
With A47C C54G the “polymerase ribozyme fitness (log ratio)” value was -1.14.
For G46C C69A G81A, the “polymerase ribozyme fitness (log ratio)” value was -1.82.
In the case of U45A A66U C76U C85G C129A, the “polymerase ribozyme fitness (log ratio)” value is reported as at most -4.2.
In the case of A47C A89G A97U C131G, the “polymerase ribozyme fitness (log ratio)” value is reported as at most -4.2.
For U45A G84A U148A, the “polymerase ribozyme fitness (log ratio)” value was at most -4.2.
For G42U, the “polymerase ribozyme fitness (log ratio)” value was -3.47.
In the case of G42C, the “polymerase ribozyme fitness (log ratio)” value is reported as -3.77.
In the case of C43G G83A, the “polymerase ribozyme fitness (log ratio)” value is reported as at most -4.2.
In the case of G42A C54G C95U A107U C118G, the “polymerase ribozyme fitness (log ratio)” value is reported as at most -4.2.
In the case of A47C C79U G83A C87U C99A C103U, the “polymerase ribozyme fitness (log ratio)” value is reported as -4.14.
With G42C C75G the “polymerase ribozyme fitness (log ratio)” value was at most -4.2.
With G42U C57G G58A C85G the “polymerase ribozyme fitness (log ratio)” value was at most -4.2.
With G46C U55A A89U C93G A106C U127C G140C the “polymerase ribozyme fitness (log ratio)” value was at most -4.2.
With G46C C54U the “polymerase ribozyme fitness (log ratio)” value was -0.821.
In the case of G42U C76A G81A G124C, the “polymerase ribozyme fitness (log ratio)” value is reported as at most -4.2.
With G42U C54G C57U G65A G92C A110C the “polymerase ribozyme fitness (log ratio)” value was at most -4.2.
With U45G A47U U56A G67C A89U C96A A97G A138C the “polymerase ribozyme fitness (log ratio)” value was at most -4.2.
For U44A U82G, the “polymerase ribozyme fitness (log ratio)” value was at most -4.2.
With G46C G59A A66G G83A A120U C123G the “polymerase ribozyme fitness (log ratio)” value was at most -4.2.
For A47C C76A C87G C96U A115G, the “polymerase ribozyme fitness (log ratio)” value was at most -4.2.
With G42C G143C the “polymerase ribozyme fitness (log ratio)” value was at most -4.2.
In the case of A47C C99U A122U G141A, the “polymerase ribozyme fitness (log ratio)” value is reported as -3.39.
With G46A G50C C79A G84U C95U A115C the “polymerase ribozyme fitness (log ratio)” value was at most -4.2.
For U45G G70A G92U G94A C116G G152U, the “polymerase ribozyme fitness (log ratio)” value was at most -4.2.
For G42U G58A G70U A73G G84U C85U U144G A150U, the “polymerase ribozyme fitness (log ratio)” value was at most -4.2.
For G46A G67U C87A C103G U111C G140A, the “polymerase ribozyme fitness (log ratio)” value was at most -4.2.
With G46A G124C the “polymerase ribozyme fitness (log ratio)” value was -1.46.
In the case of U45A C87U, the “polymerase ribozyme fitness (log ratio)” value is reported as -3.28.
With G42U C76A C93U C96U U145C the “polymerase ribozyme fitness (log ratio)” value was at most -4.2.
With U44G G48A G83C the “polymerase ribozyme fitness (log ratio)” value was at most -4.2.
With U45A A73U C79A C93U A121G the “polymerase ribozyme fitness (log ratio)” value was at most -4.2.
For U45A A49G C57A U61G G68U C114U A150U, the “polymerase ribozyme fitness (log ratio)” value was at most -4.2.
In the case of U44A U56A A64C A91U C105U C108G A110C U135G, the “polymerase ribozyme fitness (log ratio)” value is reported as at most -4.2.
In the case of U44G U56A, the “polymerase ribozyme fitness (log ratio)” value is reported as -3.19.
With C43U C51U U53G A73G C96G G126U the “polymerase ribozyme fitness (log ratio)” value was at most -4.2.
With G46A U53G C57U G86A A115C the “polymerase ribozyme fitness (log ratio)” value was at most -4.2.
In the case of G46C A60U, the “polymerase ribozyme fitness (log ratio)” value is reported as -1.74.
With G46U C63G G94U U101G A137G A147C the “polymerase ribozyme fitness (log ratio)” value was at most -4.2.
With G42U A98G U139C the “polymerase ribozyme fitness (log ratio)” value was at most -4.2.
With U44G G65A G68A the “polymerase ribozyme fitness (log ratio)” value was at most -4.2.
For C43A U56A G67A G88A G112C C114U, the “polymerase ribozyme fitness (log ratio)” value was at most -4.2.
In the case of U45A G74A C105U, the “polymerase ribozyme fitness (log ratio)” value is reported as at most -4.2.
In the case of G42U C43G G86U G94U U144A, the “polymerase ribozyme fitness (log ratio)” value is reported as at most -4.2.
In the case of C43U G50A G80C C95A A121U A150C, the “polymerase ribozyme fitness (log ratio)” value is reported as at most -4.2.
In the case of A47C C87A C99U G136U G141C, the “polymerase ribozyme fitness (log ratio)” value is reported as at most -4.2.
For U45A A97U, the “polymerase ribozyme fitness (log ratio)” value was -2.84.
For C43U U45G C131A G136U, the “polymerase ribozyme fitness (log ratio)” value was at most -4.2.
With G42C C87U A113C C118G G141C the “polymerase ribozyme fitness (log ratio)” value was at most -4.2.
With U44A C93G A113G U134A the “polymerase ribozyme fitness (log ratio)” value was at most -4.2.
With G46C G50U G84U A121C G124U the “polymerase ribozyme fitness (log ratio)” value was -3.31.
For G42C U56A C85U C95A U127C G143U, the “polymerase ribozyme fitness (log ratio)” value was at most -4.2.
For U44C U61C A64G C85U C87G C95A C96G C99A G136A, the “polymerase ribozyme fitness (log ratio)” value was at most -4.2.
With C43A C93G G133A the “polymerase ribozyme fitness (log ratio)” value was at most -4.2.
For U45C G50U C57G C87G A137C C149A, the “polymerase ribozyme fitness (log ratio)” value was at most -4.2.
With U45A A106C the “polymerase ribozyme fitness (log ratio)” value was -0.488.
With G46A A49G G50A A52U C96U C123G U139A G143C the “polymerase ribozyme fitness (log ratio)” value was at most -4.2.
With A47C G50A G92U the “polymerase ribozyme fitness (log ratio)” value was -1.37.
For G46A C57U G58C C76A C96A U101C A106U, the “polymerase ribozyme fitness (log ratio)” value was at most -4.2.
In the case of U45A U56C C57A C63G C87G G88C, the “polymerase ribozyme fitness (log ratio)” value is reported as at most -4.2.
For U45A G84U, the “polymerase ribozyme fitness (log ratio)” value was at most -4.2.
With U44A C57A C93A G133C the “polymerase ribozyme fitness (log ratio)” value was at most -4.2.
With A47C G50A the “polymerase ribozyme fitness (log ratio)” value was -1.47.
With U45A G48C G50C U53A U56A U61G C105G A119G G136U the “polymerase ribozyme fitness (log ratio)” value was at most -4.2.
For A47C A60G A107U, the “polymerase ribozyme fitness (log ratio)” value was -3.3.
In the case of U45A A91G, the “polymerase ribozyme fitness (log ratio)” value is reported as -4.12.
With U45A A91U the “polymerase ribozyme fitness (log ratio)” value was -3.74.
For U44G, the “polymerase ribozyme fitness (log ratio)” value was -3.7.
In the case of U44A, the “polymerase ribozyme fitness (log ratio)” value is reported as -3.72.
With U44C the “polymerase ribozyme fitness (log ratio)” value was -1.11.
With A47C C85A the “polymerase ribozyme fitness (log ratio)” value was -2.92.
For G46A G92A, the “polymerase ribozyme fitness (log ratio)” value was -2.92.
With U45C C108G the “polymerase ribozyme fitness (log ratio)” value was at most -4.2.
In the case of G46U A138C, the “polymerase ribozyme fitness (log ratio)” value is reported as -3.8.
With G42C C72U G92C C96U the “polymerase ribozyme fitness (log ratio)” value was at most -4.2.
In the case of U45G G92C, the “polymerase ribozyme fitness (log ratio)” value is reported as -2.2.
In the case of G46U C72U C87U, the “polymerase ribozyme fitness (log ratio)” value is reported as -1.01.
With U44A C93U A120G the “polymerase ribozyme fitness (log ratio)” value was -4.11.
With G42A G46U U82A A121U the “polymerase ribozyme fitness (log ratio)” value was -4.16.
In the case of A47C C85A C93U, the “polymerase ribozyme fitness (log ratio)” value is reported as at most -4.2.
For A47C C69G G83A A119G U146C, the “polymerase ribozyme fitness (log ratio)” value was -2.18.
For U44A C54U, the “polymerase ribozyme fitness (log ratio)” value was -3.59.
For U45A G86A, the “polymerase ribozyme fitness (log ratio)” value was -3.54.
For G42U G59A, the “polymerase ribozyme fitness (log ratio)” value was at most -4.2.
With G42C U45A C79A G86A U104C A107C the “polymerase ribozyme fitness (log ratio)” value was at most -4.2.
